T1: mCherry-LacI-PALB2^FL (UniProt Q86YC2 1-1186)
T1 sequence (looked up): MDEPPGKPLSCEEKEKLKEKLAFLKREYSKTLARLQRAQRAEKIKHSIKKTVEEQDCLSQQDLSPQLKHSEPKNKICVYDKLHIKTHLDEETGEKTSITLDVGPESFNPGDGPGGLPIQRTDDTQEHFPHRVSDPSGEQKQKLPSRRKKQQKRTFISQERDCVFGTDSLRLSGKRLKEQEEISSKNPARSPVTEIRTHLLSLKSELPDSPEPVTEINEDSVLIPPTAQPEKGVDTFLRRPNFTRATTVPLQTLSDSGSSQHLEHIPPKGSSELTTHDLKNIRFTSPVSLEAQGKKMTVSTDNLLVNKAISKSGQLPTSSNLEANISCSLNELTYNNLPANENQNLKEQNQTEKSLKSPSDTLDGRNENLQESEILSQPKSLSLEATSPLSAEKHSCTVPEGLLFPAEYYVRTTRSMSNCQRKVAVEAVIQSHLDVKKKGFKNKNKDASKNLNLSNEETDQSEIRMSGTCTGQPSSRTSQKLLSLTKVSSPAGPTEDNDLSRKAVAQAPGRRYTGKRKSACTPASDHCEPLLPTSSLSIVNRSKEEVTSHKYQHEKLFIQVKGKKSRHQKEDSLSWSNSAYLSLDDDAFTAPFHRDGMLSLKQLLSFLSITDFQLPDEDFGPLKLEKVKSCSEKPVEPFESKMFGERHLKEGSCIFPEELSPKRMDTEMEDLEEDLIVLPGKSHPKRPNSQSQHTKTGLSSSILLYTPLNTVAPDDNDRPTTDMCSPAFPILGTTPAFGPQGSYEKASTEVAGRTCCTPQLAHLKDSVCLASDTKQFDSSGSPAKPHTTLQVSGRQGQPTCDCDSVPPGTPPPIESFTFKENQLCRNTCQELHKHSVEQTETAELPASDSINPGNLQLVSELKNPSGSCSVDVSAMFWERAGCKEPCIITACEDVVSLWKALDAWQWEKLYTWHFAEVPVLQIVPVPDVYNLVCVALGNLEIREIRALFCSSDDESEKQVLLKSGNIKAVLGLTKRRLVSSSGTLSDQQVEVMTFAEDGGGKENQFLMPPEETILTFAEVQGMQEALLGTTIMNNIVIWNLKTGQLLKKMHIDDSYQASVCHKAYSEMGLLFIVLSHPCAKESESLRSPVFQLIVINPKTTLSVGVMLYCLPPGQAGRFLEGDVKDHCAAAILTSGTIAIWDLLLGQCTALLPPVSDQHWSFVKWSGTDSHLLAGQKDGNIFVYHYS

T2: mCherry-LacI-PALB2^WD40 (UniProt Q86YC2 841-1186)
T2 sequence (looked up): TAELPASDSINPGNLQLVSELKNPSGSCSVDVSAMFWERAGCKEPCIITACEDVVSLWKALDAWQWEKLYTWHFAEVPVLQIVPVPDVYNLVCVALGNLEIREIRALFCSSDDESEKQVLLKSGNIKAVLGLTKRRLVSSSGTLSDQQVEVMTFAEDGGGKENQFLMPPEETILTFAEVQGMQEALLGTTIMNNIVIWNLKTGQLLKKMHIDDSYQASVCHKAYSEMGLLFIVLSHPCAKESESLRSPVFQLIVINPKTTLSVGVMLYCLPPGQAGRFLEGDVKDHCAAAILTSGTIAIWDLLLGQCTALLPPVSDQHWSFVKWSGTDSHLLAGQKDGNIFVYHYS

B1: GFP-USP22 (enzyme, human, UniProt Q9UPT9 1-525, looked up)
chain: MVSRPEPEGEAMDAELAVAPPGCSHLGSFKVDNWKQNLRAIYQCFVWSGTAEARKRKAKSCICHVCGVHLNRLHSCLYCVFFGCFTKKHIHEHAKAKRHNLAIDLMYGGIYCFLCQDYIYDKDMEIIAKEEQRKAWKMQGVGEKFSTWEPTKRELELLKHNPKRRKITSNCTIGLRGLINLGNTCFMNCIVQALTHTPLLRDFFLSDRHRCEMQSPSSCLVCEMSSLFQEFYSGHRSPHIPYKLLHLVWTHARHLAGYEQQDAHEFLIAALDVLHRHCKGDDNGKKANNPNHCNCIIDQIFTGGLQSDVTCQVCHGVSTTIDPFWDISLDLPGSSTPFWPLSPGSEGNVVNGESHVSGTTTLTDCLRRFTRPEHLGSSAKIKCSGCHSYQESTKQLTMKKLPIVACFHLKRFEHSAKLRRKITTYVSFPLELDMTPFMASSKESRMNGQYQQPTDSLNNDNKYSLFAVVNHQGTLESGHYTSFIRQHKDQWFKCDDAIITKASIKDVLDSEGYLLFYHKQFLEYE
B2: GFP-USP22^DUB (domain or fragment, human, UniProt Q9UPT9 164-525, looked up)
chain: RRKITSNCTIGLRGLINLGNTCFMNCIVQALTHTPLLRDFFLSDRHRCEMQSPSSCLVCEMSSLFQEFYSGHRSPHIPYKLLHLVWTHARHLAGYEQQDAHEFLIAALDVLHRHCKGDDNGKKANNPNHCNCIIDQIFTGGLQSDVTCQVCHGVSTTIDPFWDISLDLPGSSTPFWPLSPGSEGNVVNGESHVSGTTTLTDCLRRFTRPEHLGSSAKIKCSGCHSYQESTKQLTMKKLPIVACFHLKRFEHSAKLRRKITTYVSFPLELDMTPFMASSKESRMNGQYQQPTDSLNNDNKYSLFAVVNHQGTLESGHYTSFIRQHKDQWFKCDDAIITKASIKDVLDSEGYLLFYHKQFLEYE

Experiments:
[1] = target: T1, mCherry-LacI-PALB2^FL; experiment: LacO/LacI tethering recruitment assay
[2] = target: T2, mCherry-LacI-PALB2^WD40; experiment: LacO/LacI tethering recruitment assay

Binder | percent of cells with recruitment of GFP-USP22 to the LacO array [1] | percent of cells with recruitment of GFP-USP22 to the LacO array [2]
B1 | 35% | 37.5%
B2 | – | 55%

Source: publication PMC9285637 (Molecular cancer research : MCR, 2019)
